This is an account of results in article PMC10352329 (Nature Communications, 2023).

Where no end group is shown, it is not given here.

What all share (conditions): both partners purified
In assay [1] the target is T1, K12/K16-acetylated human histone H4 (as it stands in H4acNuc) (human, UniProt P62805 1-103, acetyl-lysine at K12 and K16).
T1 construct: human histone H4 ORF with the codons of K12 and K16 replaced by TAG for acetyllysine; The H4 chain of m6; met p300/CBP only inside the nucleosome; also called H4K12ac/K16ac; H4NTac; source: cell-free synthesis (E. coli S30 extract, genetic code reprogramming), purified, assembled into H4acNuc
The experiment in a line: cryo-EM structure; p300_(BRPHZT) or CBP_(BRPHZT), acetyl-CoA and nucleosome mixed 4:6:1 in 20 mM HEPES-NaOH pH 7.2, 150 mM NaCl, 1 μM ZnCl2, 1 mM TCEP; purified and cross-linked by GraFix (glutaraldehyde).

The target of assay [2] is N-terminal bromodomain of human BRD4 (residues 44–168) (human, UniProt O60885 44-168). The experiment in a line: ITC; 100 µM protein in the cell, 1 mM acetylated histone NT peptide in the syringe; 25 °C; 10 mM HEPES-NaOH pH 7.4, 150 mM NaCl; single binding site model.
Assay [3] has as its target T2, human p300BRP (residues 1048–1282), wild type (human, UniProt Q09472 1048-1282, fluorescently labeled with a His tag Labeling Kit (microscale thermophoresis only)).
T2 sequence (looked up): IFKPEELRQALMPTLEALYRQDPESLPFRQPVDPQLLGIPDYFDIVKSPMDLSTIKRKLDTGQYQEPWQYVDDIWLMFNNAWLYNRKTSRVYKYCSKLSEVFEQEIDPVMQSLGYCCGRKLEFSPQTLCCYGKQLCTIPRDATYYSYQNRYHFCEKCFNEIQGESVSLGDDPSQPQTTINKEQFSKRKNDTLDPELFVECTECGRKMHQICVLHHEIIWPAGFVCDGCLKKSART
The description is as above.

B1: human p300_(BRPHZT) (residues 1048–1836) (domain or fragment)
chain: IFKPEELRQALMPTLEALYRQDPESLPFRQPVDPQLLGIPDYFDIVKSPMDLSTIKRKLDTGQYQEPWQYVDDIWLMFNNAWLYNRKTSRVYKYCSKLSEVFEQEIDPVMQSLGYCCGRKLEFSPQTLCCYGKQLCTIPRDATYYSYQNRYHFCEKCFNEIQGESVSLGDDPSQPQTTINKEQFSKRKNDTLDPELFVECTECGRKMHQICVLHHEIIWPAGFVCDGCLKKSARTRKENKFSAKRLPSTRLGTFLENRVNDFLRRQNHPESGEVTVRVVHASDKTVEVKPGMKARFVDSGEMAESFPYRTKALFAFEEIDGVDLCFFGMHVQEYGSDCPPPNQRRVYISYLDSVHFFRPKCLRTAVYHEILIGYLEYVKKLGYTTGHIWACPPSEGDDYIFHCHPPDQKIPKPKRLQEWYKKMLDKAVSERIVHDYKDIFKQATEDRLTSAKELPYFEGDFWPNVLEESIKELEQEEEERKREENTSNESTDVTKGDSKNAKKKNNKKTSKNKSSLSRGNKKKPGMPNVSNDLSQKLYATMEKHKEVFFVIRLIAGPAANSLPPIVDPDPLIPCDLMDGRDAFLTLARDKHLEFSSLRRAQWSTMCMLVELHTQSQDRFVYTCNECKHHVETRWHCTVCEDYDLCITCYNTKNHDHKMEKLGLGLDDESNNQQAAATQSPGDSRRLSIQRCIQSLVHACQCRNANCSLPSCQKMKRVVQHTKGCKRKTNGGCPICKQLIALCCYHAKHCQENKCPVPFCLNIKQKLRQQQLQHRLQQAQMLRRRMASMQ
modifications: autoacetylated form containing K1542ac, K1546ac, K1549ac, K1550ac, K1551ac, K1554ac, K1555ac, K1558ac and K1560ac
In the case of B1, the binding result in assay [1] is listed as “binds”. Usually Kd stands for the equilibrium constant for the complex coming apart. A low value points to tighter binding. Regarding PAPKK(Ac)GSK(Ac)KAVTK [di-acetylated H2B peptide K12ac/K15ac], the Kd in assay [2] was 430 ± 5 µM.

In assay [3], KAVTK(Ac)AQK(Ac)KDGK [di-acetylated H2B peptide K20ac/K23ac] displayed a Kd of 200 ± 30 µM.

B2: human CBP_(BRPHZT) (residues 1084–1873) (domain or fragment)
chain: IFKPEELRQALMPTLEALYRQDPESLPFRQPVDPQLLGIPDYFDIVKNPMDLSTIKRKLDTGQYQEPWQYVDDVWLMFNNAWLYNRKTSRVYKFCSKLAEVFEQEIDPVMQSLGYCCGRKYEFSPQTLCCYGKQLCTIPRDAAYYSYQNRYHFCEKCFTEIQGENVTLGDDPSQPQTTISKDQFEKKKNDTLDPEPFVDCKECGRKMHQICVLHYDIIWPSGFVCDNCLKKTGRPRKENKFSAKRLQTTRLGNHLEDRVNKFLRRQNHPEAGEVFVRVVASSDKTVEVKPGMKSRFVDSGEMSESFPYRTKALFAFEEIDGVDVCFFGMHVQEYGSDCPPPNTRRVYISYLDSIHFFRPRCLRTAVYHEILIGYLEYVKKLGYVTGHIWACPPSEGDDYIFHCHPPDQKIPKPKRLQEWYKKMLDKAFAERIIHDYKDIFKQATEDRLTSAKELPYFEGDFWPNVLEESIKELEQEEEERKKEESTAASETTEGSQGDSKNAKKKNNKKTNKNKSSISRANKKKPSMPNVSNDLSQKLYATMEKHKEVFFVIHLHAGPVINTLPPIVDPDPLLSCDLMDGRDAFLTLARDKHWEFSSLRRSKWSTLCMLVELHTQGQDRFVYTCNECKHHVETRWHCTVCEDYDLCINCYNTKSHAHKMVKWGLGLDDEGSSQGEPQSKSPQESRRLSIQRCIQSLVHACQCRNANCSLPSCQKMKRVVQHTKGCKRKTNGGCPVCKQLIALCCYHAKHCQENKCPVPFCLNIKHKLRQQQIQHRLQQAQLMRRRMATMN
Take B2: in assay [1], the binding result is recorded as “binds”.
